Patent publication US20160264960A1 (Chugai, published 2016)

Experiments:
[1] = molecular target: T1, human CD3e (hCD3e) extracellular region with FLAG tag (human, UniProt P07766 22-129); assay: biolayer interferometry (Octet RED384), antibody on Protein G biosensor, human CD3e in solution; antigen concentration not given [a]
Description: (§1) The antibody (6RhCEB3(2)_10) obtained in the paragraph (6-2) or an anti-CD3 antibody hCE115HA/L0000 (heavy chain: SEQ ID NO: 42; light chain: SEQ ID NO: 66) was evaluated for its binding activity against soluble human IL-6R and human CD3e (hCD3e) using Octet RED384 (forteBIO). The binding evaluation was conducted using HBS-EP+Buffer (GE Healthcare Japan Corp.) as a buffer.
(§2) After binding of the antibody to Protein G Biosensors (forteBIO), soluble human IL-6R or human CD3e was allowed to interact with the antibody on the biosensor through contact therebetween for 120 seconds, and subsequently contacted with the buffer for 120 seconds to measure the antibody-antigen interaction. Then, the biosensor was regenerated through contact with 10 mmol/L glycine-HCl (pH 1.5). The measurement was conducted at 30° C.

soluble human IL-6R [2] = molecular target: T2, soluble human IL-6R (human, UniProt P08887 20-357); assay: biolayer interferometry (Octet RED384), antibody on Protein G biosensor, soluble human IL-6R in solution, 120 s association and 120 s dissociation [a]
T2 construct: Analyte in the Octet experiments; also called hIL-6R; soluble hIL-6R
T2 sequence: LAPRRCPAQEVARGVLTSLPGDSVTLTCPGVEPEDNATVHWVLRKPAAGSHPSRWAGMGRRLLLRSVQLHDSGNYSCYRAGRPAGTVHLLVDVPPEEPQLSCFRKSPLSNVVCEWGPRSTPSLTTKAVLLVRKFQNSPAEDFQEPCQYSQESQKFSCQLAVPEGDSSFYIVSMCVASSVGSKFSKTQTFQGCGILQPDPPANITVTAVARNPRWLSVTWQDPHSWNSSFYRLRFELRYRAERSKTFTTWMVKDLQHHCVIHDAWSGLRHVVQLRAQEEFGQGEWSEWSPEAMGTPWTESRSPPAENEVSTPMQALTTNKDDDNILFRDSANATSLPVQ
Description: as §1, §2

[3] = molecular target: T1, human CD3e (hCD3e) extracellular region …; assay: biolayer interferometry (Octet RED384), antibody on Protein G biosensor, human CD3e in solution, 120 s association and 120 s dissociation [b]
Description: as §1, §2

soluble human IL-6R [4] = molecular target: T2, soluble human IL-6R; assay: biolayer interferometry (Octet RED384), antibody on Protein G biosensor, soluble human IL-6R in solution; antigen concentration not given [b]
Description: as §1, §2

soluble human IL-6R [5] = molecular target: T2, soluble human IL-6R; assay: biolayer interferometry (Octet RED384), antibody on Protein G biosensor, soluble human IL-6R in solution, 120 s association and 120 s dissociation [a]; remark: listed apart in the source
Description: (§3) The binding evaluation was conducted using HBS-EP+Buffer (GE Healthcare Japan Corp.) as a buffer.
(§4) After binding of the antibody to Protein G Biosensors (forteBIO), soluble human IL-6R or soluble human plexin A1 was allowed to interact with the antibody on the biosensor through contact therebetween for 120 seconds, and subsequently contacted with the buffer for 120 seconds to measure the antibody-antigen interaction. Then, the biosensor was regenerated through contact with 10 mmol/L glycine-HCl (pH 1.5). The measurement was conducted at 30° C.

soluble human plexin A1 [6] = molecular target: T3, soluble human plexin A1 (human, UniProt Q9UIW2 27-1244); assay: biolayer interferometry (Octet RED384), antibody on Protein G biosensor, soluble human plexin A1 in solution; antigen concentration not given [a]
T3 construct: also called hPlexin A1; human Plexin A1 extracellular region
Description: as §3, §4

soluble human IL-6R [7] = molecular target: T2, soluble human IL-6R; assay: biolayer interferometry (Octet RED384), antibody on Protein G biosensor, soluble human IL-6R in solution, 120 s association and 120 s dissociation [a]; remark: listed apart in the source
Description: (§5) Each antibody (6RNH-2_02, 6RNH-2_37, 6RNH-3(2)_32, and 6RNH-2_42) obtained in the paragraph (4-1) was evaluated for its binding activity against soluble human IL-6R using Octet RED384 (forteBIO). The binding evaluation was conducted using HBS-EP+ Buffer (GE Healthcare Japan Corp.) as a buffer.
as §2, with “IL-6R” for “IL-6R or human CD3e”

soluble human IL-6R [8] = molecular target: T2, soluble human IL-6R; assay: biolayer interferometry (Octet RED384), antibody on Protein G biosensor, soluble human IL-6R in solution, 120 s association and 120 s dissociation [b]
Description: as §5
as §2, with “IL-6R” for “IL-6R or human CD3e”

soluble human IL-6R [9] = molecular target: T2, soluble human IL-6R; assay: biolayer interferometry (Octet RED384), antibody on Protein G biosensor, soluble human IL-6R in solution, 120 s association and 120 s dissociation [c]
Description: as §5
as §2, with “IL-6R” for “IL-6R or human CD3e”

soluble human IL-6R [10] = molecular target: T2, soluble human IL-6R; assay: biolayer interferometry (Octet RED384), antibody on Protein G biosensor, soluble human IL-6R in solution, 120 s association and 120 s dissociation [a]; remark: listed apart in the source
Description: (§6) Each antibody (6RmIAB3(2)_02, 6RmIAB3(2)_06, and 6RmIAB3(2)_16) obtained in the paragraph (6-2) or an anti-mouse IgA antibody mIANMIgL_095 (heavy chain: SEQ ID NO: 41; light chain: SEQ ID NO: 65) was evaluated for its binding activity against soluble human IL-6R and mouse IgA using Octet RED384 (forteBIO). The binding evaluation was conducted using HBS-EP+Buffer (GE Healthcare Japan Corp.) as a buffer.
as §2, with “mouse IgA” for “human CD3e”

mouse IgA [11] = molecular target: T4, mouse IgA (mouse, UniProt P01878 114-344); assay: biolayer interferometry (Octet RED384), antibody on Protein G biosensor, mouse IgA in solution; antigen concentration not given [a]
T4 sequence (looked up): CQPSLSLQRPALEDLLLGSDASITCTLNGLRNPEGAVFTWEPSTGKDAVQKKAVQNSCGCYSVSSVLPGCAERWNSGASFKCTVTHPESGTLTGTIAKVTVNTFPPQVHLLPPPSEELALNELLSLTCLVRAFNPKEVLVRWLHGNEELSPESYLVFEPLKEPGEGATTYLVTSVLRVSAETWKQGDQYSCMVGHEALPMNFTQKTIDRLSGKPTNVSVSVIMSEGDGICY
Description: as §6
as §2, with “mouse IgA” for “human CD3e”

soluble human IL-6R [12] = molecular target: T2, soluble human IL-6R; assay: biolayer interferometry (Octet RED384), antibody on Protein G biosensor, soluble human IL-6R in solution; antigen concentration not given [d]
Description: as §6
as §2, with “mouse IgA” for “human CD3e”

mouse IgA [13] = molecular target: T4, mouse IgA; assay: biolayer interferometry (Octet RED384), antibody on Protein G biosensor, mouse IgA in solution; antigen concentration not given [b]
Description: as §6
as §2, with “mouse IgA” for “human CD3e”

soluble human IL-6R [14] = molecular target: T2, soluble human IL-6R; assay: biolayer interferometry (Octet RED384), antibody on Protein G biosensor, soluble human IL-6R in solution, 120 s association and 120 s dissociation [b]; remark: listed apart in the source
Description: as §6
as §2, with “mouse IgA” for “human CD3e”

soluble human IL-6R [15] = molecular target: T2, soluble human IL-6R; assay: biolayer interferometry (Octet RED384), antibody on Protein G biosensor, soluble human IL-6R in solution; antigen concentration not given [b]; remark: listed apart in the source
Description: as §3, §4

soluble human plexin A1 [16] = molecular target: T3, soluble human plexin A1; assay: biolayer interferometry (Octet RED384), antibody on Protein G biosensor, soluble human plexin A1 in solution, 120 s association and 120 s dissociation [b]
Description: as §3, §4

T1 sequence (P07766 other isoform, or with tags, fused parts or gaps): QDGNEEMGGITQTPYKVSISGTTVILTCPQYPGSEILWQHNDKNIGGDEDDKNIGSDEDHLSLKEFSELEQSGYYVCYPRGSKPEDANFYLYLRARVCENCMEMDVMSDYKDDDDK
T3 sequence (Q9UIW2 other isoform, or with tags, fused parts or gaps): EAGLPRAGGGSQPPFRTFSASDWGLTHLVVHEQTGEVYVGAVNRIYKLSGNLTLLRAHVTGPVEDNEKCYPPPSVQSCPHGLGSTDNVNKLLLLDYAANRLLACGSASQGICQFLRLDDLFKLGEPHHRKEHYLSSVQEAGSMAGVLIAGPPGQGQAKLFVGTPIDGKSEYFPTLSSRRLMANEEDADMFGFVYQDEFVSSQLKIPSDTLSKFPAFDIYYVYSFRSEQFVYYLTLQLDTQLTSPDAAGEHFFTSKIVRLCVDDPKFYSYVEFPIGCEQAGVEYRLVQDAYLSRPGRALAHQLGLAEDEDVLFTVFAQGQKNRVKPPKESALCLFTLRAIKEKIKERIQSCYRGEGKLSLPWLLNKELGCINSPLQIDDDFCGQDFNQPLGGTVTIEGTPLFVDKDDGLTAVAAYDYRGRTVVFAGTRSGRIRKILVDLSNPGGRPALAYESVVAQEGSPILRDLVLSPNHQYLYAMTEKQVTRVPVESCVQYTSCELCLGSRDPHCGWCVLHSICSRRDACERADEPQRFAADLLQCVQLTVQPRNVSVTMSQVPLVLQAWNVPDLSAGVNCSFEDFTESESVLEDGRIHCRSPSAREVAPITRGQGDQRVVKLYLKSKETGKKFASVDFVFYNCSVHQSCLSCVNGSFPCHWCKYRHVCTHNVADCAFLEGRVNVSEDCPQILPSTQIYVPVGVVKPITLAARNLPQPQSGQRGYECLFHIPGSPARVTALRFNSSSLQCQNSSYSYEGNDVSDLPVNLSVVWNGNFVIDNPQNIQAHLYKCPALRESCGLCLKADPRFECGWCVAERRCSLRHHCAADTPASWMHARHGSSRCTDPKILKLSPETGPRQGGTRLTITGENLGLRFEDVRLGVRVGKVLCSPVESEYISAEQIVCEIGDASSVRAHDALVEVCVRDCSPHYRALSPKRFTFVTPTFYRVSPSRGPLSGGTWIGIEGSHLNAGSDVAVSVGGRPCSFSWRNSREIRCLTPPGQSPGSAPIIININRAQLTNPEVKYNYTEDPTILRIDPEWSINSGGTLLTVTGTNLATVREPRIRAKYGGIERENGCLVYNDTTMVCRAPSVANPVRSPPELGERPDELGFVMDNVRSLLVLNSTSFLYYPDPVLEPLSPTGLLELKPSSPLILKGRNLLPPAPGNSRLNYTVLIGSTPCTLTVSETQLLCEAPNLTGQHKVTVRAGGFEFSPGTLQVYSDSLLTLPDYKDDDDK

B1: 6RhCEB3(2)_10 (antibody, human IgG1, kappa, V domains shown)
VH: QVQLVQSGAEVKKPGSSVKVSCKASGGTFSSYAISWVRQAPGQGLEWMGGIIPIFGTANYAQKFQGRVTITADESTSTAYMELSSLRSEDTAVYYCARDHYDILTGYPDPTYYYYGMDVWGQGTMVTVSS
VL: DIVMTQSPLSLPVTPGEPASISCRSSQSLVHSNRNTYLHWYQQKPGQAPRLLIYKVSNRFSGVPDRFSGSGSGTDFTLKISRVEAEDVGVYYCGQGTQVPYTFGQGTKLEIKR
notes: IgG with the L chain of the humanized anti-CD3 antibody CE115
binding result [1]: no binding | binding result (soluble human IL-6R [2]): binds

B2: hCE115HA/L0000 (antibody, human IgG1, kappa, V domains shown)
VH: QVQLVESGGGVVQPGRSLRLSCAASGFTFSNAWMHWVRQAPGKGLEWVAQIKAKSNNYATYYAESVKGRFTISRDDSKNSLYLQMNSLKTEDTAVYYCRYVHYGAYYGVDAWGQGTTVTVSS
VL: B1 VL
notes: also called anti-CD3 antibody hCE115HA/L0000; humanized anti-human CD3 antibody CE115
binding result [3]: binds | binding result (soluble human IL-6R [4]): no binding

B3: 6RPAB3_03 (antibody, human IgG1, kappa, V domains shown)
VH: EVQLVESGGGLVQPGGSLRLSCATSGFTFSSYEMNWVRQAPGKGLEWVSYIDRSGSTIYYADSVKGRFTISRDNAKNSLYLQMNSLRAEDTAVYYCAGEWWQGDSWGQGTTVTVSS
VL: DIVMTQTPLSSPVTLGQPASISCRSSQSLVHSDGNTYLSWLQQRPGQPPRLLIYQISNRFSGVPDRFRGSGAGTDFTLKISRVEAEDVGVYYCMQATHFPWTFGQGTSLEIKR
binding result (soluble human IL-6R [5]): binds | binding result (soluble human plexin A1 [6]): no binding

B4: 6RNH-2_02 (antibody, human IgG1, kappa, V domains shown)
VH: QVQLVETGGGMVQPGGSLRLSCAASGFMFSTYAMSWVRQASGKGLEWVSLISGTGSVTKYADSVKGRFTISRDNSKNMVYLQMNNLGADDTAVYYCANSDYGDYARFDHWGQGTLVTVSS
VL: DIQMTQSPSSLSASVGDSVTITCQASQDISSYLNWYQQKPGKAPELLIYYGSELHSGVPSRFSGSGSGTDFTFTISSLEAEDAATYYCGQGNRLPYTFGQGTKVEIER
notes: IgG with the PF1 L chain, purified on Protein A
binding result (soluble human IL-6R [7]): binds

B5: 6RNH-2_37 (antibody, human IgG1, kappa, V domains shown)
VH: QVQLQESGPGLVRPSQTLSLTCTVSGYSITSDHAWSWVRQPPGRGLEWIGYISYSGITTYNPSLKSRVTMLRDTSKNQFSLRLSSVTAADTAVYYCARSLARTTAMDYWGQGTLVTVSS
VL: B4 VL
notes: IgG with the PF1 L chain
binding result (soluble human IL-6R [8]): binds

B6: 6RNH-3(2)_32 (antibody, human IgG1, kappa, V domains shown)
VH: QVQLQESGPGLVKPSETLSLTCAVSGYSISHDHAWSWVRQPPGEGLEWIGHISYSGITNYNPHLQDRVTISRDTSKNQFSLKLSSVTAADTAVYYCARFLARITAHDHWGEGTLVTVSS
VL: B4 VL
notes: IgG with the PF1 L chain
binding result (soluble human IL-6R [9]): binds

B7: 6RmIAB3(2)_02 (antibody, human IgG1, lambda, V domains shown)
VH: QVQLQESGPGLVKPSGTLSLTCAVSGGSISSSDWWSWVRQPPGKGLEWIGEIYHGGSTNYNPSLKSRVTISVDRSKNQFSLNLSSVTAADTAVYYCARAPRGSYRIDYWGQGTLVTVSS
VL: SYELTQPPSVSVSPGQSASITCSGDKLGDRFVTWYQQKPGQSPVLVMYQDNQRPSGIPERFSGSNSGNTATLTITGTPAMDEADYYCQTWDAGTGVVFGGGTKLTVLS
notes: IgG with the L chain of the anti-mouse IgA antibody mIANMIgL_095; Culture supernatant was recovered; no purification is described
binding result (soluble human IL-6R [10]): binds | binding result (mouse IgA [11]): no binding

B8: mIANMIgL_095 (antibody, human IgG1, lambda, V domains shown)
VH: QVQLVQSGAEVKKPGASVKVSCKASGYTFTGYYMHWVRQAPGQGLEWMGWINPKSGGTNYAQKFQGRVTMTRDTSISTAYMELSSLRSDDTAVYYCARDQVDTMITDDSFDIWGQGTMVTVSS
VL: B7 VL
notes: also called anti-mouse IgA antibody mIANMIgL_095
binding result (soluble human IL-6R [12]): no binding

B9: 6RmIAB3(2)_06 (antibody, human IgG1, lambda, V domains shown)
VH: QVQLVQSGAEVKKPGASVKVSCKASGYTFATSGISWVRQAPGQGLEWLGWISPYNSRTNSAQKLQGRVNMTTDTSTNTAYLELRSLTSDDTAVYYCARANGDYRNWFDPWGQGTLVTVSS
VL: B7 VL
notes: IgG with the L chain of the anti-mouse IgA antibody mIANMIgL_095; Culture supernatant was recovered
binding result (mouse IgA [13]): no binding | binding result (soluble human IL-6R [14]): binds

B10: hPANKB2-3#135 (antibody, human IgG1, kappa, V domains shown)
VH: EVQLVQSGAEVKKPGASVKVSCKASGYTFTSYGISWVRQAPGQGLEWMGWISAYNGNTNYAQKLQGRVTMTTDTSTSTAYMELRSLRSDDTAVYYCARGGRGGDAFDIWGQGTMVTVSS
VL: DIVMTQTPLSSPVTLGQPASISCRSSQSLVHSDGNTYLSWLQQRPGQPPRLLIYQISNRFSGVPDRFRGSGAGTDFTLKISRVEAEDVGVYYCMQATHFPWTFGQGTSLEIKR
binding result (soluble human IL-6R [15]): no binding | binding result (soluble human plexin A1 [16]): binds
